From article PMC4414141, “The function of cux1 in oxidative dna damage repair is needed to prevent premature senescence of mouse embryo fibroblasts”

Key:
Details in all cases: protein: recombinant; tags: N-terminal His; label: 5'-32P on top strand
CUX1 CR1CR2 = biological target: T1, CUX1 CR1CR2 (UniProt P39880 542-1021); experiment: EMSA; EMSA: 50 nM bacterially purified protein, 60 ng poly(dI-dC); buffer, salt, pH and temperature by reference to earlier work (not in material)
T1 sequence: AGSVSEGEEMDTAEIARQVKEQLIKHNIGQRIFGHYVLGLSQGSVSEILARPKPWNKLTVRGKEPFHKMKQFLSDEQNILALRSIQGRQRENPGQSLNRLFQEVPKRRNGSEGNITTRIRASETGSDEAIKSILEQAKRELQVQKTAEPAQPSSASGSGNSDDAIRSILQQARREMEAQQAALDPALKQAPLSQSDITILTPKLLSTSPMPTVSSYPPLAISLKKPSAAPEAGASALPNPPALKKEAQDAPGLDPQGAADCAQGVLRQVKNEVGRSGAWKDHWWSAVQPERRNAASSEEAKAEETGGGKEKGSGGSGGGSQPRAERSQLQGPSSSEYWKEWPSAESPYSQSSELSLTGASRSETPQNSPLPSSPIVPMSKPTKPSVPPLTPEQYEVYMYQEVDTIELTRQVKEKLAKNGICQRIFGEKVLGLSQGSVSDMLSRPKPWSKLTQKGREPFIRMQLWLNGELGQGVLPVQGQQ

CUX1 CR2CR3HD = biological target: T2, CUX1 CR2CR3HD (UniProt P39880 934-1303); experiment: as above
T2 sequence: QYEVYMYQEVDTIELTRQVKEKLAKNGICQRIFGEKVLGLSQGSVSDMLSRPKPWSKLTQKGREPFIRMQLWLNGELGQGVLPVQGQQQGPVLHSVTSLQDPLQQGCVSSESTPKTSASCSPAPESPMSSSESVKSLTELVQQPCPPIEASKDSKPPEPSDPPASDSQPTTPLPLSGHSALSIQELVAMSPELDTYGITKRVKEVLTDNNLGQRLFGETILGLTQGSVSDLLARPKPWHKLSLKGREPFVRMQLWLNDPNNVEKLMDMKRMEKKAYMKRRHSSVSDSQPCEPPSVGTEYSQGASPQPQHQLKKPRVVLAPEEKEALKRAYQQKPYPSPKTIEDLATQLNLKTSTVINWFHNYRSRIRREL

CUX1 CR3HD = biological target: T3, CUX1 CR3HD (UniProt P39880 1117-1303); experiment: EMSA; complex co-migrates with that of OGG1; EMSA: 50 nM bacterially purified protein, 60 ng poly(dI-dC); buffer, salt, pH and temperature by reference to earlier work (not in material)
T3 sequence: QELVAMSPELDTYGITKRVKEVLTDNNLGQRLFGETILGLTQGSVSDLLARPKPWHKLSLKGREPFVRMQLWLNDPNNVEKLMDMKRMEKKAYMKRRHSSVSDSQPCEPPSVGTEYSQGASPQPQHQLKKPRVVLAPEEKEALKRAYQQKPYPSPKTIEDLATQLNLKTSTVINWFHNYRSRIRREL

Measured: binding result

B1: Probe A, 8-oxoG (dsDNA)
DNA 1: CCGGTGCATGACACTGTGACCTATCCTCAGCG
DNA 2: CGCTGAGGATAGGTCACAGTGTCATGCACCGG
modifications: 8-oxoG at position X of top strand
binds: CUX1 CR1CR2 | CUX1 CR2CR3HD | CUX1 CR3HD
